How the values were obtained:
HeLa Kyoto [1] = assay: melting temperature (median over replicates), in situ; higher = more thermally stable
HeLa Kyoto [2] = assay: solubility in G1/S (NP-40 vs SDS abundance) (log2 ratio); higher = more soluble; conditions: cell cycle stage: G1/S
HeLa Kyoto [3] = assay: solubility change mitosis vs G1/S (difference of NP-40 vs SDS log2 ratios) (log2 ratio difference); higher = more soluble in mitosis
HeLa Kyoto [4] = assay: thermal stability score vs G1/S (z-score of summed log2 fold changes over temperatures); higher = more thermally stable than in G1/S
[5] = cell cycle stage: early G1 (4.5 h after nocodazole release)
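Throughout, for melting temperature (median over replicates), in situ: HeLa Kyoto cells synchronized by double thymidine or nocodazole block, proteins quantified by TMT10plex mass spectrometry, three independent biological replicates.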
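Throughout, for solubility change mitosis vs G1/S (difference of NP-40 vs SDS log2 ratios): synchronized HeLa Kyoto cells (double thymidine block for G1/S, nocodazole release for mitosis), protein amounts in NP-40 versus SDS lysates quantified by mass spectrometry, three biological replicates.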
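Throughout, for solubility in G1/S (NP-40 vs SDS abundance): HeLa Kyoto cells arrested at G1/S by double thymidine block, proteins quantified by TMT10plex mass spectrometry in mild NP-40 versus SDS extracts, three biological replicates.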
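Throughout, for thermal stability score vs G1/S (z-score of summed log2 fold changes over temperatures): synchronized HeLa Kyoto cells, proteins quantified by TMT10plex mass spectrometry, three biological replicates, mitosis taken 0.5 h after nocodazole release, G1/S directly after double thymidine block.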

Sequence: MPLLGLLPRRAWASLLSQLLRPPCASCTGAVRCQSQVAEAVLTSQLKAHQEKPNFIIKTPKGTRDLSPQHMVVREKILDLVISCFKRHGAKGMDTPAFELKETLTEKYGEDSGLMYDLKDQGGELLSLRYDLTVPFARYLAMNKVKKMKRYHVGKVWRRESPTIVQGRYREFCQCDFDIAGQFDPMIPDAECLKIMCEILSGLQLGDFLIKVNDRRIVDGMFAVCGVPESKFRAICSSIDKLDKMAWKDVRHEMVVKKGLAPEVADRIGDYVQCHGGVSLVEQMFQDPRLSQNKQALEGLGDLKLLFEYLTLFGIADKISFDLSLARGLDYYTGVIYEAVLLQTPTQAGEEPLNVGSVAAGGRYDGLVGMFDPKGHKVPCVGLSIGVERIFYIVEQRMKTKGEKVRTTETQVFVATPQKNFLQERLKLIAELWDSGIKAEMLYKNNPKLLTQLHYCESTGIPLVVIIGEQELKEGVIKIRSVASREEVAIKRENFVAEIQKRLSES [HARS2]
- melting temperature (HeLa Kyoto [1]; cell cycle stage: G1/S): 53.6 °C
- melting temperature (HeLa Kyoto [1]; cell cycle stage: mitosis): 53.3 °C
- solubility in G1/S (log2) (HeLa Kyoto [2]): 0.0324
- solubility change mitosis (log2) (HeLa Kyoto [3]): -0.0551
- thermal stability score (HeLa Kyoto [4]; [5]): 2.43
- thermal stability score (HeLa Kyoto [4]; cell cycle stage: mitosis): 1.63

Sequence: MPLPVALQTRLAKRGILKHLEPEPEEEIIAEDYDDDPVDYEATRLEGLPPSWYKVFDPSCGLPYYWNADTDLVSWLSPHDPNSVVTKSAKKLRSSNADAEEKLDRSHDKSDRGHDKSDRSHEKLDRGHDKSDRGHDKSDRDRERGYDKVDRERERDRERDRDRGYDKADREEGKERRHHRREELAPYPKSKKAVSRKDEELDPMDPSSYSDAPRGTWSTGLPKRNEAKTGADTTAAGPLFQQRPYPSPGAVLRANAEASRTKQQD [PQBP1]
- melting temperature (HeLa Kyoto [1]; cell cycle stage: G1/S): 58.2 °C
- melting temperature (HeLa Kyoto [1]; cell cycle stage: mitosis): 54.6 °C
- solubility in G1/S (log2) (HeLa Kyoto [2]): 0.0148
- solubility change mitosis (log2) (HeLa Kyoto [3]): 0.599
- thermal stability score (HeLa Kyoto [4]; [5]): -3.93
- thermal stability score (HeLa Kyoto [4]; cell cycle stage: mitosis): -4.26

Sequence: MPLSDFILALKDNPYFGAGFGLVGVGTALALARKGVQLGLVAFRRHYMITLEVPARDRSYAWLLSWLTRHSTRTQHLSVETSYLQHESGRISTKFEFVPSPGNHFIWYRGKWIRVERSREMQMIDLQTGTPWESVTFTALGTDRKVFFNILEEARELALQQEEGKTVMYTAVGSEWRPFGYPRRRRPLNSVVLQQGLADRIVRDVQEFIDNPKWYTDRGIPYRRGYLLYGPPGCGKSSFITALAGELEHSICLLSLTDSSLSDDRLNHLLSVAPQQSLVLLEDVDAAFLSRDLAVENPVKYQGLGRLTFSGLLNALDGVASTEARIVFMTTNHVDRLDPALIRPGRVDLKEYVGYCSHWQLTQMFQRFYPGQAPSLAENFAEHVLRATNQISPAQVQGYFMLYKNDPVGAIHNAESLRR [BCS1L]
- melting temperature (HeLa Kyoto [1]; cell cycle stage: G1/S): 55.4 °C
- melting temperature (HeLa Kyoto [1]; cell cycle stage: mitosis): 54.8 °C
- solubility in G1/S (log2) (HeLa Kyoto [2]): -0.165
- solubility change mitosis (log2) (HeLa Kyoto [3]): -0.291
- thermal stability score (HeLa Kyoto [4]; [5]): 0.147
- thermal stability score (HeLa Kyoto [4]; cell cycle stage: mitosis): -1.22

Sequence: MPMFIVNTNVPRASVPDGFLSELTQQLAQATGKPPQYIAVHVVPDQLMAFGGSSEPCALCSLHSIGKIGGAQNRSYSKLLCGLLAERLRISPDRVYINYYDMNAANVGWNNSTFA [MIF]
- melting temperature (HeLa Kyoto [1]; cell cycle stage: G1/S): 53.5 °C
- melting temperature (HeLa Kyoto [1]; cell cycle stage: mitosis): 52.5 °C
- solubility in G1/S (log2) (HeLa Kyoto [2]): 0.405
- solubility change mitosis (log2) (HeLa Kyoto [3]): -0.0337
- thermal stability score (HeLa Kyoto [4]; [5]): -7.37
- thermal stability score (HeLa Kyoto [4]; cell cycle stage: mitosis): -7.71

Sequence: MPNSEPASLLELFNSIATQGELVRSLKAGNASKDEIDSAVKMLVSLKMSYKAAAGEDYKADCPPGNPAPTSNHGPDATEAEEDFVDPWTVQTSSAKGIDYDKLIVRFGSSKIDKELINRIERATGQRPHHFLRRGIFFSHRDMNQVLDAYENKKPFYLYTGRGPSSEAMHVGHLIPFIFTKWLQDVFNVPLVIQMTDDEKYLWKDLTLDQAYSYAVENAKDIIACGFDINKTFIFSDLDYMGMSSGFYKNVVKIQKHVTFNQVKGIFGFTDSDCIGKISFPAIQAAPSFSNSFPQIFRDRTDIQCLIPCAIDQDPYFRMTRDVAPRIGYPKPALLHSTFFPALQGAQTKMSASDPNSSIFLTDTAKQIKTKVNKHAFSGGRDTIEEHRQFGGNCDVDVSFMYLTFFLEDDDKLEQIRKDYTSGAMLTGELKKALIEVLQPLIAEHQARRKEVTDEIVKEFMTPRKLSFDFQ [WARS]
- melting temperature (HeLa Kyoto [1]; cell cycle stage: G1/S): 56.7 °C
- melting temperature (HeLa Kyoto [1]; cell cycle stage: mitosis): 56.3 °C
- solubility in G1/S (log2) (HeLa Kyoto [2]): 0.127
- solubility change mitosis (log2) (HeLa Kyoto [3]): -0.199
- thermal stability score (HeLa Kyoto [4]; [5]): -0.453
- thermal stability score (HeLa Kyoto [4]; cell cycle stage: mitosis): -0.825

Sequence: MPPSGPRGTLLLLPLLLLLLLRAVLAVPLERGAPNKEETPATESPDTGLYYHRYLQEVIDVLETDGHFREKLQAANAEDIKSGKLSRELDFVSHHVRTKLDELKRQEVSRLRMLLKAKMDAEQDPNVQVDHLNLLKQFEHLDPQNQHTFEARDLELLIQTATRDLAQYDAAHHEEFKRYEMLKEHERRRYLESLGEEQRKEAERKLEEQQRRHREHPKVNVPGSQAQLKEVWEELDGLDPNRFNPKTFFILHDINSDGVLDEQELEALFTKELEKVYDPKNEEDDMREMEEERLRMREHVMKNVDTNQDRLVTLEEFLASTQRKEFGDTGEGWETVEMHPAYTEEELRRFEEELAAREAELNAKAQRLSQETEALGRSQGRLEAQKRELQQAVLHMEQRKQQQQQQQGHKAPAAHPEGQLKFHPDTDDVPVPAPAGDQKEVDTSEKKLLERLPEVEVPQHL [NUCB1]
- melting temperature (HeLa Kyoto [1]; cell cycle stage: G1/S): 54.5 °C
- melting temperature (HeLa Kyoto [1]; cell cycle stage: mitosis): 54.7 °C
- solubility in G1/S (log2) (HeLa Kyoto [2]): 0.717
- solubility change mitosis (log2) (HeLa Kyoto [3]): 0.0913
- thermal stability score (HeLa Kyoto [4]; [5]): -3.73
- thermal stability score (HeLa Kyoto [4]; cell cycle stage: mitosis): -4.26

Sequence: MPRIMIKGGVWRNTEDEILKAAVMKYGKNQWSRIASLLHRKSAKQCKARWYEWLDPSIKKTEWSREEEEKLLHLAKLMPTQWRTIAPIIGRTAAQCLEHYEFLLDKAAQRDNEEETTDDPRKLKPGEIDPNPETKPARPDPIDMDEDELEMLSEARARLANTQGKKAKRKAREKQLEEARRLAALQKRRELRAAGIEIQKKRKRKRGVDYNAEIPFEKKPALGFYDTSEENYQALDADFRKLRQQDLDGELRSEKEGRDRKKDKQHLKRKKESDLPSAILQTSGVSEFTKKRSKLVLPAPQISDAELQEVVKVGQASEIARQTAEESGITNSASSTLLSEYNVTNNSVALRTPRTPASQDRILQEAQNLMALTNVDTPLKGGLNTPLHESDFSGVTPQRQVVQTPNTVLSTPFRTPSNGAEGLTPRSGTTPKPVINSTPGRTPLRDKLNINPEDGMADYSDPSYVKQMERESREHLRLGLLGLPAPKNDFEIVLPENAEKELEEREIDDTYIEDAADVDARKQAIRDAERVKEMKRMHKAVQKDLPRPSEVNETILRPLNVEPPLTDLQKSEELIKKEMITMLHYDLLHHPYEPSGNKKGKTVGFGTNNSEHITYLEHNPYEKFSKEELKKAQDVLVQEMEVVKQGMSHGELSSEAYNQVWEECYSQVLYLPGQSRYTRANLASKKDRIESLEKRLEINRGHMTTEAKRAAKMEKKMKILLGGYQSRAMGLMKQLNDLWDQIEQAHLELRTFEELKKHEDSAIPRRLECLKEDVQRQQEREKELQHRYADLLLEKETLKSKF [CDC5L]
- melting temperature (HeLa Kyoto [1]; cell cycle stage: G1/S): 47.5 °C
- melting temperature (HeLa Kyoto [1]; cell cycle stage: mitosis): 48.7 °C
- solubility in G1/S (log2) (HeLa Kyoto [2]): -0.778
- solubility change mitosis (log2) (HeLa Kyoto [3]): 0.483
- thermal stability score (HeLa Kyoto [4]; [5]): 3.11
- thermal stability score (HeLa Kyoto [4]; cell cycle stage: mitosis): 6.1

Sequence: MPRKRKCDLRAVRVGLLLGGGGVYGSRFRFTFPGCRALSPWRVRVQRRRCEMSTMFADTLLIVFISVCTALLAEGITWVLVYRTDKYKRLKAEVEKQSKKLEKKKETITESAGRQQKKKIERQEEKLKNNNRDLSMVRMKSMFAIGFCFTALMGMFNSIFDGRVVAKLPFTPLSYIQGLSHRNLLGDDTTDCSFIFLYILCTMSIRQNIQKILGLAPSRAATKQAGGFLGPPPPSGKFS [TMCO1]
- melting temperature (HeLa Kyoto [1]; cell cycle stage: G1/S): 53.7 °C
- melting temperature (HeLa Kyoto [1]; cell cycle stage: mitosis): 54.1 °C
- solubility in G1/S (log2) (HeLa Kyoto [2]): -0.0501
- solubility change mitosis (log2) (HeLa Kyoto [3]): 0.0683
- thermal stability score (HeLa Kyoto [4]; [5]): -0.0145
- thermal stability score (HeLa Kyoto [4]; cell cycle stage: mitosis): -0.0344

Sequence: MPSASCDTLLDDIEDIVSQEDSKPQDRHFVRKDVVPKVRRRNTQKYLQEEENSPPSDSTIPGIQKIWIRTWGCSHNNSDGEYMAGQLAAYGYKITENASDADLWLLNSCTVKNPAEDHFRNSIKKAQEENKKIVLAGCVPQAQPRQDYLKGLSIIGVQQIDRVVEVVEETIKGHSVRLLGQKKDNGRRLGGARLDLPKIRKNPLIEIISINTGCLNACTYCKTKHARGNLASYPIDELVDRAKQSFQEGVCEIWLTSEDTGAYGRDIGTNLPTLLWKLVEVIPEGAMLRLGMTNPPYILEHLEEMAKILNHPRVYAFLHIPVQSASDSVLMEMKREYCVADFKRVVDFLKEKVPGITIATDIICGFPGETDQDFQETVKLVEEYKFPSLFINQFYPRPGTPAAKMEQVPAQVKKQRTKDLSRVFHSYSPYDHKIGERQQVLVTEESFDSKFYVAHNQFYEQVLVPKNPAFMGKMVEVDIYESGKHFMKGQPVSDAKVYTPSISKPLAKGEVSGLTKDFRNGLGNQLSSGSHTSAASQCDSASSRMVLPMPRLHQDCALRMSVGLALLGLLFAFFVKVYN [CDKAL1]
- melting temperature (HeLa Kyoto [1]; cell cycle stage: G1/S): 51.2 °C
- melting temperature (HeLa Kyoto [1]; cell cycle stage: mitosis): 50.7 °C
- solubility in G1/S (log2) (HeLa Kyoto [2]): 0.0175
- solubility change mitosis (log2) (HeLa Kyoto [3]): -0.00551
- thermal stability score (HeLa Kyoto [4]; [5]): -2.9
- thermal stability score (HeLa Kyoto [4]; cell cycle stage: mitosis): -1
